Values of other authors in patent US20220184236A1, “NANOPARTICLE, CONTRAST AGENT FOR MAGNETIC RESONANCE IMAGING COMPRISING SAME AND ZWITTERIONIC LIGAND COMPOUND” (ASTELLAS PHARMA INC., priority 2018, published 2022).

Conditions: authentic sample, stated size

B1: ovalbumin (protein, UniProt P01012 2-386, looked up)
Ovalbumin: GSIGAASMEFCFDVFKELKVHHANENIFYCPIAIMSALAMVYLGAKDSTRTQINKVVRFDKLPGFGDSIEAQCGTSVNVHSSLRDILNQITKPNDVYSFSLASRLYAEERYPILPEYLQCVKELYRGGLEPINFQTAADQARELINSWVESQTNGIIRNVLQPSSVDSQTAMVLVNAIVFKGLWEKAFKDEDTQAMPFRVTEQESKPVQMMYQIGLFRVASMASEKMKILELPFASGTMSMLVLLPDEVSGLEQLESIINFEKLTEWTSSNVMEERKIKVYLPRMKMEEKYNLTSVLMAMGITDVFSSSANLSGISSAESLKISQAVHAAHAEINEAGREVVGSAEAGVDAASVSEEFRADHPFLFCIKHIATNAVLFFGRCVSP
notes: authentic sample for SEC, particle size 6.1 nm
For B1, the particle size is listed as 6.1 nm.
